# Assay results: FireProtDB (doi:10.1093/protein/11.3.213)
# “And” between values parts separate entries of the source, which are not always exact repeats. Identical values can stand only once.
# B1: Endolysin, P03706 (parent)
# chain: MVEINNQRKAFLDMLAWSEGTDNGRQKTRNHGYDVIVGGELFTDYSDHPRKLVTLNPKLKSTGAGRYQLLSRWWDAYRKQLGLKDFSPKSQDAVALQQIKERGALPMIDRGDIRQAIDRCSNIWASLPGAGYGQFEHKADSLIAKFKEAGGTVREIDV
# Variants of: B1
# Conditions: Escherichia phage lambda; pH 4; Thermal; Fluorescence; phosphate 0.1 M; reversible: yes; structure 1AM7; whole UniProt chain shown
Variant,Tm,unfolding enthalpy (calorimetric),unfolding enthalpy (van 't Hoff)
H31N H137N,24.5 °C and 26 °C,169 kJ/mol and 181 kJ/mol,121 kJ/mol and 148 kJ/mol

# Same assay, conditions: Escherichia phage lambda; pH 4.5; Thermal; Fluorescence; phosphate 0.1 M; reversible: yes; structure 1AM7; whole UniProt chain shown
Variant,Tm [°C],unfolding enthalpy (calorimetric) [kJ/mol],unfolding enthalpy (van 't Hoff) [kJ/mol]
H31N H137N,39.3,292,297

# Same assay, conditions: Escherichia phage lambda; pH 5.5; Thermal; Fluorescence; phosphate 0.1 M; reversible: yes; structure 1AM7; whole UniProt chain shown
Variant,Tm [°C],unfolding enthalpy (calorimetric) [kJ/mol],unfolding enthalpy (van 't Hoff) [kJ/mol]
H31N H137N,51.1,391,448

# Same assay, conditions: Escherichia phage lambda; pH 6; Thermal; Fluorescence; phosphate 0.1 M; reversible: yes; structure 1AM7; whole UniProt chain shown
Variant,Tm [°C],unfolding enthalpy (calorimetric) [kJ/mol],unfolding enthalpy (van 't Hoff) [kJ/mol]
H31N H137N,52.7,405,389

# Same assay, conditions: Escherichia phage lambda; pH 6.5; Thermal; Fluorescence; phosphate 0.1 M; reversible: yes; structure 1AM7; whole UniProt chain shown
Variant,Tm [°C],unfolding enthalpy (calorimetric) [kJ/mol],unfolding enthalpy (van 't Hoff) [kJ/mol]
H31N H137N,53.6,412,464

# Same assay, conditions: Escherichia phage lambda; pH 6.57; Thermal; Fluorescence; phosphate 0.1 M; reversible: yes; structure 1AM7; whole UniProt chain shown
Variant,Tm [°C],unfolding enthalpy (calorimetric) [kJ/mol],unfolding enthalpy (van 't Hoff) [kJ/mol]
H31N H137N,50.8,389,418

# Same assay, conditions: Escherichia phage lambda; pH 7.07; Thermal; Fluorescence; phosphate 0.1 M; reversible: yes; structure 1AM7; whole UniProt chain shown
Variant,Tm [°C],unfolding enthalpy (calorimetric) [kJ/mol],unfolding enthalpy (van 't Hoff) [kJ/mol]
H31N H137N,51.1,391,439

# Same assay, conditions: Escherichia phage lambda; pH 7.57; Thermal; Fluorescence; phosphate 0.1 M; reversible: yes; structure 1AM7; whole UniProt chain shown
Variant,Tm [°C],unfolding enthalpy (calorimetric) [kJ/mol],unfolding enthalpy (van 't Hoff) [kJ/mol]
H31N H137N,51,390,423

# Same assay, conditions: Escherichia phage lambda; pH 8.07; Thermal; Fluorescence; phosphate 0.1 M; reversible: yes; structure 1AM7; whole UniProt chain shown
Variant,Tm [°C],unfolding enthalpy (calorimetric) [kJ/mol],unfolding enthalpy (van 't Hoff) [kJ/mol]
H31N H137N,50.1,383,381
